The supplement of paper PMC9112550, “Optimization of the antimicrobial peptide Bac7 by deep mutational scanning” (BMC Biology, 2022)
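Also: peptides expressed intracellularly from a pBAD plasmid library in pooled LB shake-flask culture, induced with 0.3% L-arabinose, DNA abundance read by NGS, three biological replicates, DESeq2 with apeglm shrinkage.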

Each sequence was assayed on Escherichia coli TOP10 (assay: shrunken log2 fold change of peptide-encoding DNA abundance (4.5 h post-induction vs induction); higher = less antimicrobial activity (less host growth inhibition)). Details: time post-induction: 4.5 h; library: site-saturation at positions 5, 18, 19, 20.
In the case of RRIRIRPPRLPRPRPRPVGFPRP, the “shrunken log2 fold change” value is reported as -0.182. With RRIRMRPPRLPRPRPRPWRVPRP the “shrunken log2 fold change” value was -0.158. In the case of RRIRMRPPRLPRPRPRPQFVPRP, the “shrunken log2 fold change” value is reported as -0.0894. RRIRLRPPRLPRPRPRPWMEPRP was tested, and the “shrunken log2 fold change” value was 0.00489. With RRIRWRPPRLPRPRPRPHWPPRP the “shrunken log2 fold change” value was 0.248. With RRIRVRPPRLPRPRPRPHHDPRP the “shrunken log2 fold change” value was -0.37. RRIRMRPPRLPRPRPRPFPAPRP was tested, and the “shrunken log2 fold change” value was 0.426. With RRIRSRPPRLPRPRPRPLAGPRP the “shrunken log2 fold change” value was 0.225. For RRIRCRPPRLPRPRPRPRDRPRP, the “shrunken log2 fold change” value was 0.731. In the case of RRIRFRPPRLPRPRPRPYMCPRP, the “shrunken log2 fold change” value is reported as -0.0146. For RRIRGRPPRLPRPRPRPFRHPRP, the “shrunken log2 fold change” value was 0.0102. In the case of RRIRWRPPRLPRPRPRPCEGPRP, the “shrunken log2 fold change” value is reported as 0.00476. RRIRTRPPRLPRPRPRPAYYPRP was tested, and the “shrunken log2 fold change” value was 0.0141. With RRIRPRPPRLPRPRPRPIAMPRP the “shrunken log2 fold change” value was 0.0793. RRIRMRPPRLPRPRPRPPWFPRP was tested, and the “shrunken log2 fold change” value was 0.568. RRIRIRPPRLPRPRPRPSLNPRP was tested, and the “shrunken log2 fold change” value was -0.595. In the case of RRIRFRPPRLPRPRPRPLQPPRP, the “shrunken log2 fold change” value is reported as 0.104. In the case of RRIRNRPPRLPRPRPRPSFHPRP, the “shrunken log2 fold change” value is reported as -0.41. In the case of RRIRDRPPRLPRPRPRPTPYPRP, the “shrunken log2 fold change” value is reported as -0.13. RRIRFRPPRLPRPRPRPFWQPRP was tested, and the “shrunken log2 fold change” value was -0.321. For RRIRERPPRLPRPRPRPNQFPRP, the “shrunken log2 fold change” value was -0.525. RRIRRRPPRLPRPRPRPQMLPRP was tested, and the “shrunken log2 fold change” value was 0.246. With RRIRLRPPRLPRPRPRPHFTPRP the “shrunken log2 fold change” value was -0.355. In the case of RRIRIRPPRLPRPRPRPKVSPRP, the “shrunken log2 fold change” value is reported as 0.0423. With RRIRHRPPRLPRPRPRPYVNPRP the “shrunken log2 fold change” value was -0.0772. With RRIRLRPPRLPRPRPRPKGAPRP the “shrunken log2 fold change” value was 0.379. In the case of RRIRIRPPRLPRPRPRPSNIPRP, the “shrunken log2 fold change” value is reported as -0.207. With RRIRLRPPRLPRPRPRPLTLPRP the “shrunken log2 fold change” value was 0.134. With RRIRMRPPRLPRPRPRPCRNPRP the “shrunken log2 fold change” value was -0.326. In the case of RRIRERPPRLPRPRPRPDNNPRP, the “shrunken log2 fold change” value is reported as -0.237. For RRIRNRPPRLPRPRPRPEVRPRP, the “shrunken log2 fold change” value was 0.292. For RRIRSRPPRLPRPRPRPGKPPRP, the “shrunken log2 fold change” value was 0.0657. For RRIRERPPRLPRPRPRPHFRPRP, the “shrunken log2 fold change” value was -0.624. In the case of RRIRTRPPRLPRPRPRPISYPRP, the “shrunken log2 fold change” value is reported as 0.061. With RRIRPRPPRLPRPRPRPEVWPRP the “shrunken log2 fold change” value was 0.5. With RRIRTRPPRLPRPRPRPHGAPRP the “shrunken log2 fold change” value was -0.0597. For RRIRARPPRLPRPRPRPCIDPRP, the “shrunken log2 fold change” value was 0.306. RRIRYRPPRLPRPRPRPHIQPRP was tested, and the “shrunken log2 fold change” value was -1.03. RRIRQRPPRLPRPRPRPSIRPRP was tested, and the “shrunken log2 fold change” value was -0.523. RRIRYRPPRLPRPRPRPLDVPRP was tested, and the “shrunken log2 fold change” value was 0.0153. RRIRDRPPRLPRPRPRPMCWPRP was tested, and the “shrunken log2 fold change” value was 0.564. For RRIRPRPPRLPRPRPRPKPEPRP, the “shrunken log2 fold change” value was 0.311. With RRIRCRPPRLPRPRPRPKWVPRP the “shrunken log2 fold change” value was 0.0707. For RRIRIRPPRLPRPRPRPVDHPRP, the “shrunken log2 fold change” value was -0.498. RRIRDRPPRLPRPRPRPFRYPRP was tested, and the “shrunken log2 fold change” value was 0.0402. For RRIRLRPPRLPRPRPRPPLVPRP, the “shrunken log2 fold change” value was 0.402. In the case of RRIRVRPPRLPRPRPRPQSLPRP, the “shrunken log2 fold change” value is reported as 0.0116. In the case of RRIRARPPRLPRPRPRPKHQPRP, the “shrunken log2 fold change” value is reported as 0.324. With RRIRWRPPRLPRPRPRPDYQPRP the “shrunken log2 fold change” value was -0.101. RRIRIRPPRLPRPRPRPCGNPRP was tested, and the “shrunken log2 fold change” value was 0.00902. In the case of RRIRKRPPRLPRPRPRPLYQPRP, the “shrunken log2 fold change” value is reported as -0.187. For RRIRIRPPRLPRPRPRPWQKPRP, the “shrunken log2 fold change” value was 0.0223. In the case of RRIRCRPPRLPRPRPRPHYQPRP, the “shrunken log2 fold change” value is reported as -1.29. With RRIRKRPPRLPRPRPRPTEEPRP the “shrunken log2 fold change” value was 2.12. In the case of RRIRRRPPRLPRPRPRPIHYPRP, the “shrunken log2 fold change” value is reported as -0.359. For RRIRGRPPRLPRPRPRPWYGPRP, the “shrunken log2 fold change” value was -0.242. RRIRDRPPRLPRPRPRPILFPRP was tested, and the “shrunken log2 fold change” value was -0.185. With RRIRIRPPRLPRPRPRPITVPRP the “shrunken log2 fold change” value was -0.426. With RRIRCRPPRLPRPRPRPIKHPRP the “shrunken log2 fold change” value was -0.389. RRIRHRPPRLPRPRPRPPYEPRP was tested, and the “shrunken log2 fold change” value was -0.486. RRIRGRPPRLPRPRPRPPWPPRP was tested, and the “shrunken log2 fold change” value was 0.871. In the case of RRIRYRPPRLPRPRPRPNFQPRP, the “shrunken log2 fold change” value is reported as -0.578. For RRIRKRPPRLPRPRPRPQDAPRP, the “shrunken log2 fold change” value was 0.027. In the case of RRIRDRPPRLPRPRPRPLDVPRP, the “shrunken log2 fold change” value is reported as -0.0992. For RRIRQRPPRLPRPRPRPPKAPRP, the “shrunken log2 fold change” value was -0.058. For RRIRFRPPRLPRPRPRPYCIPRP, the “shrunken log2 fold change” value was -0.597. For RRIRIRPPRLPRPRPRPDFYPRP, the “shrunken log2 fold change” value was -0.554. In the case of RRIRTRPPRLPRPRPRPWFYPRP, the “shrunken log2 fold change” value is reported as -0.54. For RRIRERPPRLPRPRPRPFSMPRP, the “shrunken log2 fold change” value was -0.366. With RRIRMRPPRLPRPRPRPATNPRP the “shrunken log2 fold change” value was 0.499. In the case of RRIRLRPPRLPRPRPRPRGLPRP, the “shrunken log2 fold change” value is reported as 0.146. For RRIRCRPPRLPRPRPRPFEAPRP, the “shrunken log2 fold change” value was 0.102. For RRIRWRPPRLPRPRPRPRYTPRP, the “shrunken log2 fold change” value was -0.25. With RRIRFRPPRLPRPRPRPWMPPRP the “shrunken log2 fold change” value was -0.25. With RRIRIRPPRLPRPRPRPPIQPRP the “shrunken log2 fold change” value was -0.468.
